Molecular target: dynamic microtubules grown from GMPCPP-stabilized seeds (UniProt Q6B856)
Test: optical trap rupture force assay

Sequence of UniProt Q6B856 (Q6B856 whole entry, looked up): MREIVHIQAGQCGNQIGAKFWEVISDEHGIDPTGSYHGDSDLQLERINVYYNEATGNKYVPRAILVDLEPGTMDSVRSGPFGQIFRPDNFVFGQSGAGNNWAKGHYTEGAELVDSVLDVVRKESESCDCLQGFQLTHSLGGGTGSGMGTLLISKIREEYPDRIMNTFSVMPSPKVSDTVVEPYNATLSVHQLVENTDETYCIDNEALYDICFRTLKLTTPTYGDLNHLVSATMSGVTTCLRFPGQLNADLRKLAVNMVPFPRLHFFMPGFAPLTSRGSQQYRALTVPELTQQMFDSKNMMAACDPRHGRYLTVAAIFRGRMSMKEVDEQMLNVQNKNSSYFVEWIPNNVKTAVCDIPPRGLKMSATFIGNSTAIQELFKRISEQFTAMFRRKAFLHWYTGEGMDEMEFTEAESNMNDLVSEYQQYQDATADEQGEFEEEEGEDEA

- mean rupture force: 2.7 pN
Substance: dad1-1 kinetochore particles (from UniProt P40568 1-576) (complex)
